According to US12517124B2, “Chimeric receptor for use in whole-cell sensors for detecting analytes of interest” (INSERM (Institut National de la Sante et de la Recherche …, priority 2017, dated 2026):

Assays:
[1] = test system: reporter GFP through pCadBA promoter; assay: Activation of CadC transcriptional factor by periplasmic GCN4 domain oligomerization, GFP reporter, flow cytometry; assay type: cell-based, E. coli; conditions: compared to construct without GCN4; 1 mM IPTG
Source text: CadC and LexA transcriptional factor DNA binding domain, Leucine zipper GCN4, VHHcafe and VHHRNase were synthesized by INTEGRATED DNA TECHNOLOGIES® (IDT®). Different DNA components such as GFP reporter, CadBA promoter, pLexA promoter and CadC variants were constructed into BIOBRICK® standard vector pSB4K5 by Gibson assembly methods. The resulting constructs were transformed into E. coli strain NEB®10beta (NEW ENGLAND BIOLABS®, NEB®) and determined their performance. In all constructs, the expression level of CadC variants are under the control of pLac-1 promoter, which can be induced by IPTG. The CadC variants control the expression of reporter GFP through pCadBA promoter.
Pick a single colony of CadC operating unit variant into 3 mL of LB/kanamycin medium and incubate in 37° C. overnight with vigorous shaking. The overnight culture is further diluted 100 fold into 3 mL of LB/kanamycin medium and incubated in 37° C. for 4 hours to reach to exponential phase (O.D=0.4˜0.6). […] The resulting cell culture was further analyzed with ATTUNE® NxT flow cytometer. […]

[2] = test system: Green Fluorescent Protein (GFP) driven by the LexA promoter; assay type: cell-based, E. coli; conditions: different IPTG concentrations
Source text: In order to prevent interference from endogenous E. coli LexA, we used the mutant LexA-408, and its corresponding promoter which is not recognized by the wild type LexA. We fused LexA DBD to a monomeric LBD that undergoes ligand-induced homodimerization. Thus, in the presence of ligand, LexA DBD should be able to bind DNA and repress target gene expression.
We used a single-domain VHH camelid antibody that can be dimerized upon binding to its ligand caffeine (termed VHH-Caffeine from herein). As a negative control we chose a VHH targeting RNase A (termed VHH-Control from herein).
Detection of caffeine using a LexA-VHH fusion. We built two chimeric proteins, expressed in E. coli cytoplasm, composed of an N-terminal LexA DBD and a C-terminal VHH, and placed their expression under the control of the pLacO1 promoter induced by isopropyl β-D-1-thiogalactopyranoside (IPTG). As a reporter, we used the Green Fluorescent Protein (GFP) driven by the LexA promoter. As positive and negative controls, we expressed full-length LexA and LexA DBD. […] We then characterized the behavior of cells expressing LexAVHH-Caffeine and LexA-VHH-Control in response to increasing concentrations of IPTG and caffeine (data not shown). […] We then monitored the response of the LexA-VHH fusions to increasing concentrations of caffeine at different IPTG concentrations. […] We calculated the fold repression of LexA-VHH-Caffeine.

Row | Molecule | fold activation of downstream reporter gene (GFP) expression [1] [fold] | response to increasing concentrations of caffeine [2]
1 | CadC-wtTM-GCN4: CadC DNA binding domain, wild type CadC transmembrane region, C-terminal autodimerization leucine zipper GCN4 (protein) MQQPVVRVGEWLVTPSINQISRNGRQLTLEPRLIDLLVFFAQHSGEVLSRDELIDNVWKRSIVTNHVVTQSISELRKSLKDNDEDSPVYIATVPKRGYKLMVPVIWYSEEEGEEIMLSSPPPIPEAVPATDSPSHSLNIQNTATPPEQSPVKSKRFTTFWVWFFFLLSLGICVALVAFSSLDTRLPMLEDKVEELLSKNYHLENEVARL | 50 | –
2 | full-length LexA: full-length LexA transcriptional repressor, positive control (protein, UniProt P0A7C2 1-202, looked up, full-length, full-length LexA transcriptional repressor, positive control) MKALTARQQEVFDLIRDHISQTGMPPTRAEIAQRLGFRSPNAAEEHLKALARKGVIEIVSGASRGIRLLQEEEEGLPLVGRVAAGEPLLAQQHIEGHYQVDPSLFKPNADFLLRVSGMSMKDIGIMDGDLLAVHKTQDVRNGQVVVARIDDEVTVKRLKKQGNKVELLPENSEFKPIVVDLRQQSFTIEGLAVGVIRNGDWL | – | not affected by caffeine
